We go through one substance from patent publication US7456007B1, “β-secretase enzyme compositions and methods” (Elan Pharmaceuticals, Inc., priority 1998, dated 2008).

[ ]: non-standard residue; d: D form. Sta = CC(C)C[C@H](N)[C@@H](O)CC(=O)O

The test has as its target β-secretase (Homo sapiens, UniProt P56817). In words: β-secretase inhibition, assay not specified. It counts as biochemical.

β-secretase, sequence (P56817 46-501): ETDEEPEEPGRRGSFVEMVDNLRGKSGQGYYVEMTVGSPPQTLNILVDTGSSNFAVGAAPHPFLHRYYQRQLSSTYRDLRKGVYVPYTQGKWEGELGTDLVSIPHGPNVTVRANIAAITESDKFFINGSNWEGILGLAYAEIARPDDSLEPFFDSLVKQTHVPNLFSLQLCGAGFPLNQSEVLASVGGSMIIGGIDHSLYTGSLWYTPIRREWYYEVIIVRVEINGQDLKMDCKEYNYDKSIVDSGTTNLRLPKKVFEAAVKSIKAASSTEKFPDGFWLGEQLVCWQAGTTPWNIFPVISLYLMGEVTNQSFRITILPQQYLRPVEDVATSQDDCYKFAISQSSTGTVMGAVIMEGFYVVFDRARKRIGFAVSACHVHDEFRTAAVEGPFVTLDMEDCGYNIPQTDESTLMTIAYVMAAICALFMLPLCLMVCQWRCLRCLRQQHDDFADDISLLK

For the substance “NH2-KTEEISEVN[sta]VAEF-COOH (H-KTEEISEVN[Sta]VAEF-OH) [P10-P4′staD→V]”, the “inhibitor of the enzyme (in words)” value is “reasonably potent inhibitor”.
